The assay deals with NKG2D ligands. As to the kind of experiment: cell-based or functional assay.

B1: chimeric NKG2D receptor (NKG2D.ζ), expressed on primary human NK cells (receptor)
chain: MRVKFSRSAEPPAYQQGQNQLYNELNLGRREEYDVLDKRRGRDPEMGGKPRRKNPQEGLYNELQKDKMAEAYSEIGMKGERRRGKGHDGLYQGLSTATKDTYDALHMQALPPRGWIRGRRSRHSWEMSEFHNYNLDLKKSDFSTRWQKQRCPVVKSKCRENASPFFFCCFIAVAMGIRFIIMVAIWSAVFLNSLFNQEVQIPLTESYCGPCPKNWICYKNNCYQFFDESKNWYESQASCMSQNASLLKVYSKEDQDLLKLVKSYHWMGLVHIPTNGSWQWEDGSILSPNLLTIIEMQKGDCALYASSFKGYIENCSTPNTYICMQRTV
Turning to B1, the cytotoxicity against autologous MDSCs, 4-hour chromium-release assay, E:T ratio of 5:1 came to 35%; the cytotoxicity against wild-type K562 in a 4-hour cytotoxicity assay, 2:1 E:T ratio is 79.2%; the lysis of autologous immature dendritic cells, E:T ratio of 20:1 was found to be 4.2%.

The values above are taken from US20240316099A1.
